From PMC2275666 (The EMBO Journal, 2008)
Where a chain is given by its changes, count along the chain named.

Experiments:
Test in all cases: pull-down
6H–hTFIIEα D393A = molecular target: T1, 6H–hTFIIEα D393A (human, UniProt P29083 1-439, D393A)
T1 sequence: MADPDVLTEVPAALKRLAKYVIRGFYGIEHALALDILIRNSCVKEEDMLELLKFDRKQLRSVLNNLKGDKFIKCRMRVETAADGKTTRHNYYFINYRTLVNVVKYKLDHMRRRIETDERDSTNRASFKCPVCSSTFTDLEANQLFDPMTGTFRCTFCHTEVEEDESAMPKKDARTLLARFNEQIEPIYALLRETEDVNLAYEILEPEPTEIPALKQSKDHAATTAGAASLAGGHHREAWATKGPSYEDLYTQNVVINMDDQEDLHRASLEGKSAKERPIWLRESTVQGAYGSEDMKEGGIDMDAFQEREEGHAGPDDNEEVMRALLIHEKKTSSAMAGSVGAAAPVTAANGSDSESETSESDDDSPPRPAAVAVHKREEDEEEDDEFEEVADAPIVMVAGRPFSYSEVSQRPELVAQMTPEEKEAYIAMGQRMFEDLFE

6H–hTFIIEα S365A = molecular target: T2, 6H–hTFIIEα S365A (human, UniProt P29083 1-439, S365A)
T2 sequence: T1 sequence with S365A, A393D

6H–hTFIIEα S365E = molecular target: T3, 6H–hTFIIEα S365E (human, UniProt P29083 1-439, S365E)
T3 sequence: T1 sequence with S365E, A393D

6H–hTFIIEα F387E = molecular target: T4, 6H–hTFIIEα F387E (human, UniProt P29083 1-439, F387E)
T4 sequence: T1 sequence with F387E, A393D

6H–hTFIIEα D380A = molecular target: T5, 6H–hTFIIEα D380A (human, UniProt P29083 1-439, D380A)
T5 sequence: T1 sequence with D380A, A393D

binding result (6H–hTFIIEα D393A): binds | binding result (6H–hTFIIEα S365A): binds | binding result (6H–hTFIIEα S365E): binds | binding result (6H–hTFIIEα F387E): binds | binding result (6H–hTFIIEα D380A): binds
B1: GST-tagged hTFIIEβ (natural protein)
chain: MDPSLLRERELFKKRALSTPVVEKRSASSESSSSSSKKKKTKVEHGGSSGSKQNSDHSNGSFNLKALSGSSGYKFGVLAKIVNYMKTRHQRGDTHPLTLDEILDETQHLDIGLKQKQWLMTEALVNNPKIEVIDGKYAFKPKYNVRDKKALLRLLDQHDQRGLGGILLEDIEEALPNSQKAVKALGDQILFVNRPDKKKILFFNDKSCQFSVDEEFQKLWRSVTVDSMDEEKIEEYLKRQGISSMQESGPKKVAPIQRRKKPASQKKRRFKTHNEHLAGVLKDYSDITSSK
